According to patent publication US20260274955A1 (JANUX THERAPEUTICS, published 2026):

Experiments:
[1] = target: T1, Anti-CD28 Fab (SEQ ID NOs: 202, 203); test: phage ELISA on captured biotinylated Fab;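 further: wells preblocked with or without CD28 antigen, then clonal phage supernatant added briefly, washed, and bound phage read out by ELISA using HRP-linked anti-M13 antibody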
T1 construct: biotinylated and captured on neutravidin coated plates in the phage ELISA
T1 sequence (VH, as listed by the source, chain 1 of 2): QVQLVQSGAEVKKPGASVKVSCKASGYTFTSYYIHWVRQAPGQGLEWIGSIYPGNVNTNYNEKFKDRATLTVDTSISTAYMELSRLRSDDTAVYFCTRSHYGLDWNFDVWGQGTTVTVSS
T1 sequence (VL, as listed by the source, chain 2 of 2): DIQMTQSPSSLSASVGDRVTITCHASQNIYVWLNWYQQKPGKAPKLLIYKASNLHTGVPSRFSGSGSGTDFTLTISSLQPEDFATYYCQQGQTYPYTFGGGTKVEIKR
Procedure: (§1) Clonal phage were harvested as crude supernatants and screened via standard ELISAs. […] Prior to the addition of clonal phage, wells were incubated with blocking buffer and CD28 antigen or blocking buffer alone. Without washing or aspirating, clonal phage supernatants were then added to the wells and incubated for a short time. Wells were then washed followed by detection of bound phage using a horse radish conjugated anti-M13 antibody.

[2] = target: T1, Anti-CD28 Fab (SEQ ID NOs: 202, 203); test: phage ELISA on captured Fab, wells pre-incubated with CD28 antigen (competitor: CD28);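 further: bound clonal phage detected with an HRP-linked anti-M13 antibody, compared against wells that received blocking buffer alone without CD28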
Procedure: as §1

[3] = target: Anti-CD28 Fab (SEQ ID NOs: 202, 203); test: phage binding ELISA on captured Fab;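 further: clonal phage supernatants added briefly to wells pre-incubated with CD28 antigen or with blocking buffer only, then washed, bound phage read by ELISA using HRP-coupled anti-M13 antibody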
Target sequence in this assay (VH, as listed by the source, chain 1 of 2): as the sequence (VH, as listed by the source, chain 1 of 2) above
Target sequence in this assay (VL, as listed by the source, chain 2 of 2): as the sequence (VL, as listed by the source, chain 2 of 2) above
Procedure: as §1

[4] = target: Anti-CD28 Fab (SEQ ID NOs: 202, 203); test: phage binding ELISA on captured Fab, competitor CD28 antigen;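 further: clonal phage supernatant binding in wells preincubated with CD28 antigen in blocking buffer, detected by HRP-conjugated anti-M13 antibody ELISA, compared with blocking buffer alone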
Target sequence in this assay (VH, as listed by the source, chain 1 of 2): as the sequence (VH, as listed by the source, chain 1 of 2) above
Target sequence in this assay (VL, as listed by the source, chain 2 of 2): as the sequence (VL, as listed by the source, chain 2 of 2) above
Procedure: as §1

Binder	Anti-CD28 Fab signal [1]	Anti-CD28 Fab signal in the presence of CD28 [2]	Anti-CD28 Fab (SEQ ID NOs: 202, 203) signal [3]	Anti-CD28 Fab signal in the presence of CD28 [4]
YCDGHAIEYMQKCL [Phage-229]	2.05	0.07	–	–
YCFGHFPEYMAKCL [Phage-773]	–	–	0.98	0.07
YCQGHMPEYMDKCL [Phage-231]	2.05	0.07	–	–
YCEGHAIQYMSKCL [Phage-239]	2.04	0.06	–	–
YCQGHFPQYMAKCL [Phage-777]	–	–	0.97	0.07
YCEGHLPSYLAKCL [Phage-753]	–	–	1.05	0.06
YCDGHAPEFIRKCL [Phage-754]	–	–	1.05	0.07
YCDGHLPQYMSKCL [Phage-262]	2	0.1	–	–
YCDGHMPQYMSKCL [Phage-266]	1.98	0.08	–	–
YCAGHLPMYMHKCL [Phage-264]	1.99	0.18	–	–
YCEGHADIYMQKCL [Phage-225]	2.06	0.07	–	–
YCDGHLPEYQMKCL [Phage-236]	2.05	0.08	–	–
YCEGHAPEYMYKCL [Phage-235]	2.05	0.07	–	–
YCDGHLWEYMDKCL [Phage-269]	1.97	0.06	–	–
YCEGHSSAYMRKCL [Phage-758]	–	–	1.04	0.06
YCEGHLAEYMDKCL [Phage-272]	1.96	0.07	–	–
YCEGHRAEYMEKCL [Phage-288]	1.93	0.06	–	–
YCDGHLPRYMEKCM [Phage-751]	–	–	1.05	0.06
YCDGHFREYMQKCL [Phage-242]	2.04	0.06	–	–
YCDGHSSAYIDKCL [Phage-752]	–	–	1.05	0.06
YCAGHASEYLQKCL [Phage-881]	–	–	0.43	0.06
YCAGHSPEFMEKCL [Phage-297]	1.91	0.06	–	–
YCEGHAPQHMDKCL [Phage-240]	2.04	0.08	–	–

Binder	Anti-CD28 Fab signal [1]	Anti-CD28 Fab signal in the presence of CD28 [2]	Anti-CD28 Fab (SEQ ID NOs: 202, 203) signal [3]	Anti-CD28 Fab signal in the presence of CD28 [4]
YCDGHSAQYMHKCL [Phage-234]	2.05	0.06	–	–
YCEGHLPMYFLKCM [Phage-270]	1.97	0.06	–	–
YCEGHAPEYMMKCI [Phage-224]	2.06	0.06	–	–
YCDGHSDQYMWKCL [Phage-261]	2	0.11	–	–
YCEGHLPIYMDKCL [Phage-228]	2.06	0.08	–	–
YCEGHSSEYLGKCL [Phage-750]	–	–	1.05	0.09
YCDGHLIEYMEKCL [Phage-238]	2.04	0.06	–	–
YCDGHLNEYMEKCL [Phage-298]	1.91	0.06	–	–
YCEGHSAIYIAKCM [Phage-772]	–	–	0.98	0.11
YCDGHLPIYMTQCL [Phage-271]	1.97	0.08	–	–
YCSGHSWAYIGKCL [Phage-775]	–	–	0.98	0.07
YCEGHSVEYILKCL [Phage-757]	–	–	1.04	0.06
YCEGHAPQYMSKCL [Phage-755]	–	–	1.04	0.08
YCEGHAAEYMMKCL [Phage-263]	1.99	0.07	–	–
YCDGHDARYMTKCL [Phage-756]	–	–	1.04	0.09
YCMGHQPEYMQKCL [Phage-291]	1.93	0.08	–	–
YCDGHSAEYLAKCL [Phage-293]	1.93	0.08	–	–
YCDGHTGMYISKCL [Phage-774]	–	–	0.98	0.06
YCAGHIEEYMWKCL [Phage-230]	2.05	0.06	–	–
YCEGHLSQYMQKCL [Phage-259]	2	0.09	–	–
YCDGHAPEYVMKCL [Phage-232]	2.05	0.1	–	–
YCAGHAAEYMWKCL [Phage-776]	–	–	0.97	0.06
YCDGHVGEYMQKCL [Phage-233]	2.05	0.08	–	–
